This passage reports in vivo reconstitution of tsdCas9, Western blot band intensity, mouse striatum co-transduced with AAV9 results from patent US20240123088A1.

Some results are limits rather than exact numbers.

In the experiment the target is RmaDnaB-SpdCas9C (Rhodothermus marinus DnaB C-intein fused to the C-terminal split SpdCas9, HA-tagged) (Rhodothermus marinus (C-intein); Streptococcus pyogenes (dCas9 half)) (UniProt Q99ZW2). Description: cell-based or functional assay.

On to “SpdCas9N-RmaDnaB (N-terminal split SpdCas9 fused to the Rhodothermus marinus DnaB N-intein, FLAG-tagged)”, for which the in vivo reconstitution of tsdCas9, Western blot band intensity, mouse striatum co-transduced with AAV9 was > 50%.
